Measurements as given in publication doi:10.1101/2022.02.17.480967.

Target: H1.2 2-108 (UniProt P16403 2-108)
Test: fluorescence polarization

Sequence of H1.2 2-108 (P16403 2-108): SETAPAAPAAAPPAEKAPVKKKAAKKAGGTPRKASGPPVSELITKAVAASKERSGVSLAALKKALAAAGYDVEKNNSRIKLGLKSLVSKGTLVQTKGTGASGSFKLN

B1: fluorescein-labeled 30-mer DNA (printed strands are 27 nt) (dsDNA)
DNA 1: ATCATTAATATGAATTCGCCACATGCA
DNA 2: TGCATGTGGCGAATTCATATTAATGAT
- binding signal: 50 fold lower affinity than full-length H1.2
